In IntAct's records for PubMed 26167883:

Target: mcm2_human MCM2 (UniProt P49736)

effect of a mutation on the interaction: decreasing interaction strength
Substance: Histone H3.1 (Homo sapiens) (from UniProt P68431) R64A;K65A
